Measurements reported in patent US20150338398.
Where two headings read alike, the source gives them in different places.

Test system: TAL-PrA (GAL1 promoter TAL)
Settings: ChIP-qPCR

Substance | binding signal [fold vs ACT1] | other results
AAATTAATCAGCGGTGAC (double strand) [REV7 similar site (ChrIX)] | 0.77 | –
GGGGTAATTAATGTAAAT (double strand) [IDP3 similar site (ChrXIV)] | 0.94 | –
GAL1 promoter TAL target (ChrII 278829-278846) | – | binding signal (not enriched in glucose): 6.14 fold vs ACT1
TTATACATTAATCAGCGA (double strand) [ENB1 similar site (ChrXV)] | – | binding signal (GAL1 at least 4.6-fold better): 1.34 fold vs ACT1
GGGGTAATTAAAATTTCT (double strand) [IQG1 similar site (ChrXVI)] | 0.76 | –
GGGGTAATTAATCATTTT (double strand) [SCC2 similar site (ChrIV)] | 0.65 | –
